# Molecular target: テネイシンC (human) (UniProt P24821)
# Assay: SPR (Biacore 2000)
binder,measurement,value
"抗TNC−4F10のscFvフラグメント(scFv 4F10) (scFv, not shown: small tags and cut ends) scFv: EVLLQQSGPELVKPGASVKIPCKASGYTFTDYNMDWMKQSHGKSLEWIGDINPKSGNSIYNQKFKGKATLTVDKSSSTAYMELRSLTSEDTAVYYCAGRDWSAWFAFWGQGTLVSVSAGGGGSGGGGSGGGGSDVVMTQTPLTLSVIIGQPASISCKSSQSLLYSNGKTYLNWLLQRPGQSPKRLIYLVSKLDSGVPDRFTGSGSGTDFTLKISRVEAEDLGDYYCVQTTHFPWTFGGGTKLEIKDYKDDDDK",Kd,40 nM

# — patent publication JP2013242308A
